The source of these data is the nanobody polyreactivity screen of Harvey et al. (2022).

A short description of the data set: yeast display, Sf9 membrane polyspecificity reagent, FACS + sequencing; frameworks hold sequencing errors. In short, it runs like this:
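Nanobodies from a synthetic yeast display library (Saccharomyces cerevisiae BJ5465), induced 36–48 hours with galactose, were stained 1 hour at 4 °C with 10% biotinylated, detergent-solubilized Sf9 membrane reagent, enriched on streptavidin microbeads, then FACS-sorted. Anti-HA (expression) and streptavidin (reagent binding) fluorescence set low and high (top ~1%) gates. Polyreactivity labels come from the gate of origin. Genes were colony-PCR amplified, MiSeq 2 × 250 sequenced and filtered by CDR length.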
Regarding “QVQLVESGGGLVQAGGSLRLSCAASGRTFGRNAMGWYRQSPGKERELVAAISRSGASTYYADSVMGRFTLSRDNAKNTVYLQMNSLKPEDTAVYDCAARYSYYHGSAGFDYWGQGTQVTVSS”, the “polyreactivity (PSR sort gate)” value is reported as “high polyreactivity”.

With “QVQLVESGGVLVQAGGSLRLSCAASGSIFYRYAMGWYRQAPGKERELVAANSSNGVSTYYADSVKGRFTISRDNAKNTVYLQMNSLKPEDTAVYYCARDVYASPRLYTSRYNYWGQGTQVTVSS”, the “polyreactivity (PSR sort gate)” value is on record as “low polyreactivity”.

With “QVQLVESGGGLVQAGGSLRLSCAASGRIFLPYAMGWYRQAPGKERELVAGISSGGSTKYADSVKGRFTISRDNAKNTVYLQMNSLKPEDTAVYYCNRRFPIYGSRFGYYYWGQGTQVTVSS”, the “polyreactivity (PSR sort gate)” value was “high polyreactivity”.

Consider “QVQLVESGGGLVQAGGSLRLTCAASGFIFKIYARGWYRQAPGKERELVARITRSGGSTYYADSVKGRFTISRDNAKNTVYLQMNSLKPEDTAVYSCNAELFRYVRYDYWGQGTQVTVSS”, for which the “polyreactivity (PSR sort gate)” value is “high polyreactivity”.

For the sequence “QVQLVESGGGLVQAGGSLRLSCAASGSIFSYYAMGWYRQAPGKERELVAAIRRGGSTNYADSVKGRFTNSRDNAKNTVYLQMNSLKPEDTAVYYCAASLGWRFYYWGQGSQVTVSS”, the “polyreactivity (PSR sort gate)” value is listed as “high polyreactivity”.

Take “QVQLVESGGGLVQAGGRLRLSCAASGRTFYYNAMGWYREAPGKERELVATIGGSTYYADSVKGRFTISRDNAKNTVYLQMNSLIPEDTAVYYCAASRYSHYPRYRLTCFYYWGQGTQVTVSS”: the “polyreactivity (PSR sort gate)” value is “high polyreactivity”.

“QVQLVESGGGLVQAGGSLRLSCAASGRTIAQYAMGWSRQAPGKERELVAAISSSGGSTYYADSVKGRFTISRDNAKNTVYLQMNSLKPEDTAVYYCAKYGTKAKQYDYWGQGTQVTVSS”: the “polyreactivity (PSR sort gate)” value was “high polyreactivity”.

As for “QVQHVESGGGLVQAGGSLPLSCAASGFIFYNYAQRCYTQPPGKERELVAAISSGDDTTYADSVKGRFTISRDNAKNTVYLQMNSLKPDDTAVYYCNTVRSVKQQGPYGYCGQGTQVTVSS”, the “polyreactivity (PSR sort gate)” value is listed as “low polyreactivity”.

For the sequence “QVQLVDSGGGLVQAGGSLRLSCAASGRIFYYYAMGWYRQAPGKEREFVAAINSRDGSTNYADSVKGRFTISRDNAKNTVYLQMNSLKPEDTAVYYCAAEGYRSWRGLRSRYYYWGQGTQVTVSS”, the “polyreactivity (PSR sort gate)” value is listed as “high polyreactivity”.

As to “QVQLVESGGGLVQAGGSLRLSCAASGRTFRLYAMGWHRQAPGKERELVAAITRGGRTNYADSVKGRFTISRDNAKNTVYLQMNSLKPEDTAVYYCAARYVERHTDYYYWGQGTQVTVSS”, the “polyreactivity (PSR sort gate)” value was “low polyreactivity”.

As for “QVQLQESGGGQVQAGGSLRLSCAASGYMSTHYFMGWYRQSPGKDREFVAGISNGSITNYADSVKGRFTISRDNARNTVYLQMNSLKPEYTAVYYGAAFEWTYVRFGYWGQGTQVTVSG”, the “polyreactivity (PSR sort gate)” value is “high polyreactivity”.

For “QVQLVESGGGLVQAGGSLRLSCAASGSILYVYAMGWYRQAPGKERELVATITGRVVSTNYADSVKGRLTISRDNAKNTVYLQMNSLKPEDTAVYYCAARTRRRRGEYDYWGQGTQVTVSS”, the “polyreactivity (PSR sort gate)” value is “high polyreactivity”.

For the sequence “QVQLVESGGGLVQAGGSLRLSCAASGRIFDGYDMGWYRQAPGKERELVAAITSVGSTNYADSVKGRFTISRDNAKNTVYLQMNSLKPEDTAVYYCAAVLYVFYDEYGYWEYFSQYDYWGQGTQVTVSS”, the “polyreactivity (PSR sort gate)” value is reported as “low polyreactivity”.

Take “QVQLLESGRGLVQAGGSLRLSCAPSGLTFRYMAMGWYIQAPGKERELVAAINSGGRTNYADSVKGRFTISRDNAKNTVFLQMNSLKPEDTAVYYCAAVRHWTVGWTYYYWGQGTQVTVSS”: the “polyreactivity (PSR sort gate)” value is reported as “high polyreactivity”.

With “QVQLVESGGGIVEAGGSLRLSCAASGSTYYWNAMVWYIQAPGKERELVAAISRDGSTYYADSVNGRFTISRDNAKKTVYLHMNCLKPEVTAVYYCAKACVTNVVVVDSVFAYDYWGQGTIVTVSS”, the “polyreactivity (PSR sort gate)” value is reported as “low polyreactivity”.

With “QVQLVESGGGLVQAGGRLRLSCAASGRIFYTYTMGWYRQAPGKERELVATITDGTRTNYADSVKVRFTISRDNAKITVYLQMNSLKHEDTAVYYCNAAGRWHDLYRINYDYWGQGTQVTVSS”, the “polyreactivity (PSR sort gate)” value is “low polyreactivity”.

As for “QVQLVESGGGLVQAGGSLRLSCAASGFIFVKNAMGWYRQAPGKERELVAVISTRGGRTYYADSVKGRFTISRDNAKNTVYLQMNSLKPEDTAVYYCAAGDQYKTRRNGYGYWGQGTQVTVSS”, the “polyreactivity (PSR sort gate)” value is listed as “high polyreactivity”.

With “QVQLVESGGGLVQAGGSLRLSCAASGRWLYAMGWYIQAHGKERELVAAISRSGGSTNYADSVKGRFTISRDNAKNTVYLQMNSLKPEDTAVYYCAATPYSYYTYQPEGEYWGQGTQVTVSS”, the “polyreactivity (PSR sort gate)” value is given as “low polyreactivity”.

“QVQLVESGGGLVQAGGSLRLSCAASGSTFGSYAMGWYRPAPGKERELVAAISYSGGSTYYADSVKGRFTISRDNAKNTVYLQMNSLKPEDTAVYYCATVRKYRAMVYWGQGTQVTVSS”: the “polyreactivity (PSR sort gate)” value is “high polyreactivity”.

For “QVQLVESGGGLVQAGGSLRLSCAASGRIFKRNTLGWYRQAPGKERELVAAITNSGITYYADSVKGRFTISRDNAKNTVYLQMNSLKPEDTAVYYCAARVIYYYGSGPYDYWGQGTQVTVSS”, the “polyreactivity (PSR sort gate)” value is reported as “low polyreactivity”.

Take “QVQLVESGGGLVQAGGSLRLSCAASGSIFVSNAMGWYRQAPGKERELVAAITARDVSTYYADSVKGRFTISRDNAKNTVYLQMNSLKPEDTAVYYCAGNSSTYPSDDSYDYWGQGTQVTVSS”: the “polyreactivity (PSR sort gate)” value was “low polyreactivity”.

Turning to “QVQLVESGGGLVQAGGSLRLSCAASGSIFRIYRMGWYRQAPGKERELVAAISYSGGNTYYADSVKGRFTISRDNAKNTVYLQMNSLKPEDTAVYYCAAVPYRKHSYPFRLNYWGQGTQVTVSS”, the “polyreactivity (PSR sort gate)” value is reported as “high polyreactivity”.

On to “QVQLEESGGGLVQAGGSLRLSCAASGIIFPVYAMGWYRQAPGKERELVAAITRSGGITYYADSVKGRFTISRDNEKNTVYLQMNSLKPEDTAVYDCAASVYSLSRRSWMDYWGQGTQVTVSS”, for which the “polyreactivity (PSR sort gate)” value was “low polyreactivity”.

Consider “QVQLVESGPGLVQAGGSLRLSCASSGFIFRNYPMGWYRHAPGKERELVASISRGTSTNYADSVKGRFTISRDNAKNTVYLQRNSLKPEDTAVYYCNKRFYYHPFDYWGQGTQVTVSS”, for which the “polyreactivity (PSR sort gate)” value was “high polyreactivity”.

For the sequence “QVQLVESGGGLVQAGGSLRLSCAASGIIFYGNAMGWYRQAPGKERELVAAITWSGGSTYYADSVKGRFTISRDNAKNTVYLQLTSLKPEDTAVYYCAADFLYGFYYWGQGTQVTVSS”, the “polyreactivity (PSR sort gate)” value is reported as “low polyreactivity”.

For “QVQLVESGGGLVQAGGSLRLSCAASGRIFSGYAMGWYRQAPGKESELVAAITSRSGSTYYADSVKARFTISRDNAKNTVYLQMNSLKPEDTAVYYCDAEYVRFYWYTSDYWGQGTQVTVSS”, the “polyreactivity (PSR sort gate)” value is given as “low polyreactivity”.

For the sequence “QVQLVESGGGLVQAGGSLRLSCAASGRIFGTNDMGWYRQAPGKETELVAAIRATSGSTYYADSVKGRFTISRDNAKNTVYLQMNSLKPEDTAVYYCAAEIWRYNSYIKYWHRLDYWGQGTQVTVSS”, the “polyreactivity (PSR sort gate)” value is “high polyreactivity”.

On to “QVQLVESGGGLVQAGGSLRLSCAASGITFTGYDMGWYRQAPGIERELVADISNGSSTDYADSVKGRFTISRDNAKNTVYFQMISLKPEDTAVYYCAVDIDNWSEYDYWGHGTQVTVSS”, for which the “polyreactivity (PSR sort gate)” value is recorded as “low polyreactivity”.

Regarding “QVQLVESGGGLVQAGGRLRLSCAASGRIFAEYAMGWYRQAPGKVRELVAAISRRGGRPYYADSVKGRFTISRDNAKKPVYLQMNSLTPDDTAVYYCAADHGDPGGYDYWGQGTQVTVSS”, the “polyreactivity (PSR sort gate)” value is on record as “high polyreactivity”.

Regarding “QVQRVESGGGLVQAGGSLRLSCAASGSTFEYYAMGWYRQAPGKERELVAAISGGGSTNYADSVKGRFTISRDNAKNTVYLQMNSLTPEVTAVYYCNASDVGSRTSNYWGQGTQVTVSS”, the “polyreactivity (PSR sort gate)” value was “low polyreactivity”.

Turning to “QVQLVESGGGLVQAGGSLRLSCAASGSTFFFYAMGWYRQAPGKERELVAAISSGGTTDYADSVKGRFTISRDNAKNTVYLQMNSLKPEDTAVYYCAATYVYWTWGYDYWGQGTQVTVSS”, the “polyreactivity (PSR sort gate)” value is “low polyreactivity”.

Regarding “QVQLVESGGGLVQAGGSLRLSCAASGRTFLVYARGWYRQAPGKDRELVAAISISSGSTYYADSVKGRFTISRDNAKNTVYLQMNSLKPEDTAVYYCAAVYTYVKRASENDYWGQGTQVTVSS”, the “polyreactivity (PSR sort gate)” value is listed as “low polyreactivity”.

Regarding “QVQLVESGGGLVQAGGSLRLSCAASGSTFEAYAMGWDRQAPGKERELVAAISYSGSSTYYADSVKGRFTISRDNAMNSVYLQMHRLKPEDTALTYCAARASKGRRMGYWGQGTQVTVSS”, the “polyreactivity (PSR sort gate)” value is on record as “low polyreactivity”.

For the sequence “QVHLVESGGGLVQAGGSLRLSCAASGTIFGEYAMGWYRQAPGKERELVARISVSGTGTYYADSVKGRFTISRVNAKNTVYLQMNSLKPEDTAVYYSATRLYTIRWGGVSYDYDYWGQGTQVTVSS”, the “polyreactivity (PSR sort gate)” value is listed as “high polyreactivity”.

With “QVQLVESGGGLVQAGGSLRLSCAASGNTFAVNAMGWYRQAPGKERELVAAISRSGVTTRYADSVKGRFTISRDNAKNTVYLLMNSLKPEDTAVYYCNADPRLRQTRDYWGQGTQVTVSS”, the “polyreactivity (PSR sort gate)” value was “high polyreactivity”.

Regarding “QVQLVESGGGLVQAGGSLRLISAASGSIFYRNAMGWYRQAPGKERDLVAAISSDGSTNYADSVKGRFTISRDNAKNTVYLQMNSLKPEDTAVYYCAAPWTQILDFWGQGTQVTVSS”, the “polyreactivity (PSR sort gate)” value is reported as “low polyreactivity”.

Take “QLQLVESGGGLVQAGGSLRLSCAASGSTFWSNTMGWYRQAPGKERELVATITDSGGITYYADSVKGRFTISRDNAKNTVYLQMNSLKPEDTAVYYCNVRKTWYGYSVTGRYDYWGQGTQVTVSS”: the “polyreactivity (PSR sort gate)” value is “low polyreactivity”.

For the sequence “QVQLVESGGGLVQAGGSLRLSCAASGSTFHRNTMGWYRQAPAKERALVAGISLRGVSTYYADSVKGRFTISRDNAKNTVYLQMNSLKPEDTAVYYCAAGGPYTRNFKLGYWGQGTQVTVSS”, the “polyreactivity (PSR sort gate)” value was “high polyreactivity”.

As for “QVQLVESGGGLVQAGGSLRLSCAASGRIFIRYAMGSYRQAPGKERELVAAITYSGGRTYYADSVKGRFTISRDNAKNTVYLQMNSLKPEDTAVYYCAADAPYGEDYWGQGTQVTVSS”, the “polyreactivity (PSR sort gate)” value was “high polyreactivity”.

For “QVQLVESGGGLVQAGGSLRLICAASGFIFWFYAMGWYRQAPGKERELVASISASGGSTNYADSVKGRFTISRDKAKNTVYLQMNSLKPEDTAVYYCAARKRYQRGYWGQGTQVTVSS”, the “polyreactivity (PSR sort gate)” value is “high polyreactivity”.

In the case of “QVQLVESGGGLVQAGGSLRLSCAASGTTFGINAMGWYRQAPGKERELVASITRRGGSTYYADSVKGRFTISRDNAKNTVYLQMNSLKPEDTAVYYCNKTYRYGTPLYDYWGQGTQVTVSS”, the “polyreactivity (PSR sort gate)” value is “high polyreactivity”.
